Data from article PMC6168263 (The Journal of Cell Biology, 2018).

B1: MBP-Hof1-FL-6His (natural protein, S. cerevisiae, UniProt Q05080 1-669, looked up)
chain: MSYSYEACFWDPNDNGVNILLGHISQGIRSCDSMILFFKQRSELEKDYARRLGAITGKLDKDIGTNMDYGKLNETFNVVLSVEKARAQSHSKQSEILFRQIYTDTKAFAANLQARYTTLSGKIERLRMDKFNKKKGCEVLQKKLQDAQIRFRDLQLNENNMIGAKRVEHNKRELLKWESNSQEYKVQLDVLKQEYKASQKFWIHEWAQLSCELQEMENARISFLQSKLQQFATSSMETYILEQTKMDMLTNHLNSFTAADEISTFSKENGTGRLKHKTSKGDMNSSANWAQMSSISTTSKKTESYMDNIRKLSSQLKETENKRKLASIDKYEKPLPSPEVTMATQFRNSTPVIRNETKVVANPTLSLRSSPVQLQSNVDDSVLRQKPDKPRPIVGEEQLKPDEDSKNPDEKGLMVHKRNQSLSSPSESSSSNPTDFSHIKKRQSMESMTTSVSSMANSIDDSQRFAKSWNSSNRKRKSMSHLQVPSSASSRSDDGGRTPNSAHNLNEDDYNTRRDTSTSTILFKPPVAVRGTSRGHTHRQSMIMQDSSNPIEDALYEMERIQSSSKPGTKTGNIMDERGVVRDRGITVTLPIVTSEGFPVIEYAKAMYPLIGNEAPGLANFHKGDYLLITEIVNKDWYKGEVYDNDRIDRNHRIGLIPYNFIQLLHQGL
B2: MBP-Hof1 F-BAR (1-275) (domain or fragment, S. cerevisiae, UniProt Q05080 1-275, looked up)
chain: MSYSYEACFWDPNDNGVNILLGHISQGIRSCDSMILFFKQRSELEKDYARRLGAITGKLDKDIGTNMDYGKLNETFNVVLSVEKARAQSHSKQSEILFRQIYTDTKAFAANLQARYTTLSGKIERLRMDKFNKKKGCEVLQKKLQDAQIRFRDLQLNENNMIGAKRVEHNKRELLKWESNSQEYKVQLDVLKQEYKASQKFWIHEWAQLSCELQEMENARISFLQSKLQQFATSSMETYILEQTKMDMLTNHLNSFTAADEISTFSKENGTGRLK
B3: C-Bud6 (550-788) (domain or fragment, S. cerevisiae, UniProt P41697 550-788, looked up)
chain: AKNSSNRMYMEKSQTELGDLSDTLLSKVDDLQDVIEIMRKDVAERRSQPAKKKLETVSKDLENAQADVLKLQEFIDTEKPHWKKTWEAELDKVCEEQQFLTLQEELILDLKEDLGKALETFDLIKLCCEEQEKNPSRSKSNPILPIMRPGTFNQVREQVMVAVQSLNPDHDSRVEAIDKAEKMWEMERKLKASNEFDDELENFVGNSNLKKSGGFEEVERIRKQKDEANLRAYFGPGFT
B4: 6His-Bnr1 FH2 (868-1,291) (domain or fragment, S. cerevisiae, UniProt P40450 868-1291, looked up)
chain: DLKPPPTEKRLKQIHWDKVEDIKDTLWEDTFQRQETIKELQTDGIFSQIEDIFKMKSPTKIANKRNAESSIALSSNNGKSSNELKKISFLSRDLAQQFGINLHMFSQLSDMEFVMKVLNCDNDIVQNVNILKFFCKEELVNIPKSMLNKYEPYSQGKDGKAVSDLQRADRIFLELCINLRFYWNARSKSLLTLSTYERDYYDLIFKLQKIDDAISHLNRSPKFKSLMFIITEIGNHMNKRIVKGIKLKSLTKLAFVRSSIDQNVSFLHFIEKVIRIKYPDIYGFVDDLKNIEDLGKISLEHVESECHEFHKKIEDLVTQFQVGKLSKEENLDPRDQIIKKVKFKINRAKTKSELLIGQCKLTLIDLNKLMKYYGEDPKDKESKNEFFQPFIEFLAMFKKCAKENIEKEEMERVYEQRKSLLDMR
B5: MBP-Hof1-NT-SNAP-549 (domain or fragment, S. cerevisiae, UniProt Q05080 1-340, looked up)
chain: MSYSYEACFWDPNDNGVNILLGHISQGIRSCDSMILFFKQRSELEKDYARRLGAITGKLDKDIGTNMDYGKLNETFNVVLSVEKARAQSHSKQSEILFRQIYTDTKAFAANLQARYTTLSGKIERLRMDKFNKKKGCEVLQKKLQDAQIRFRDLQLNENNMIGAKRVEHNKRELLKWESNSQEYKVQLDVLKQEYKASQKFWIHEWAQLSCELQEMENARISFLQSKLQQFATSSMETYILEQTKMDMLTNHLNSFTAADEISTFSKENGTGRLKHKTSKGDMNSSANWAQMSSISTTSKKTESYMDNIRKLSSQLKETENKRKLASIDKYEKPLPSPEV
modifications: BG-549 SNAP dye on the SNAP tag

Assays:
[1] = biological target: 6His-Bnr1 FH1-FH2-C (residues 757-1,375) (S. cerevisiae, UniProt P40450 757-1375); experiment: negative-stain single-particle EM
Chain of 6His-Bnr1 FH1-FH2-C (residues 757-1,375) (P40450 757-1375): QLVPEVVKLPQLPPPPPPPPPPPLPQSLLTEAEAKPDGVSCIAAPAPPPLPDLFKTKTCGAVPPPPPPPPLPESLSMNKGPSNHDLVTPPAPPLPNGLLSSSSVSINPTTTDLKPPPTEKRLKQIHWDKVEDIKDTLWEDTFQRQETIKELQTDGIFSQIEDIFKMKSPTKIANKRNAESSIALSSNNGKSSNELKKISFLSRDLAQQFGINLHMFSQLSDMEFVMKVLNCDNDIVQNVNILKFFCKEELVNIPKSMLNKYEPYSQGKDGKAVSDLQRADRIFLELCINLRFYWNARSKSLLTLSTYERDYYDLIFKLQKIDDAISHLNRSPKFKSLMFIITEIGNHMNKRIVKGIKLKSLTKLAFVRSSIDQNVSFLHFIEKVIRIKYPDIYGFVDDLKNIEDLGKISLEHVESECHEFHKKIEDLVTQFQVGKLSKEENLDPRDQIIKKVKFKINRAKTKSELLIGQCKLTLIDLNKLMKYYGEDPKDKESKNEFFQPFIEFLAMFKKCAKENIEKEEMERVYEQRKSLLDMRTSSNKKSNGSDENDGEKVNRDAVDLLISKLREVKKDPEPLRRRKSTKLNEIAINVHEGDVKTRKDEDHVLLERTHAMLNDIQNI

[2] = biological target: B4; experiment: negative-stain single-particle EM
649-biotin-SNAP-C-Bnr1 = 649-biotin-SNAP-C-Bnr1 (S. cerevisiae, UniProt P40450 757-1375, BG-649-PEG-Biotin on the SNAP tag); experiment: TIRF microscopy of labelled protein on formin-coated beads
Chain of 649-biotin-SNAP-C-Bnr1 (P40450 757-1375): as above

[3] = biological target: the molecule itself; experiment: negative-stain single-particle EM

Binder: B1
stoichiometry N [1]: 2 C-Bnr1 dimers per Hof1-FL dimer

Binder: B2
stoichiometry N [2]: 2 Bnr1 FH2 domains per Hof1 F-BAR domain

Binder: B3
binding result (649-biotin-SNAP-C-Bnr1): binds

Binder: B4
stoichiometry N [3]: 2

Binder: B5
binding result (649-biotin-SNAP-C-Bnr1): binds
